Series [1] addresses T1, rLbSCD6 (Leishmania braziliensis, UniProt A4HEG4 1-294).
T1 sequence: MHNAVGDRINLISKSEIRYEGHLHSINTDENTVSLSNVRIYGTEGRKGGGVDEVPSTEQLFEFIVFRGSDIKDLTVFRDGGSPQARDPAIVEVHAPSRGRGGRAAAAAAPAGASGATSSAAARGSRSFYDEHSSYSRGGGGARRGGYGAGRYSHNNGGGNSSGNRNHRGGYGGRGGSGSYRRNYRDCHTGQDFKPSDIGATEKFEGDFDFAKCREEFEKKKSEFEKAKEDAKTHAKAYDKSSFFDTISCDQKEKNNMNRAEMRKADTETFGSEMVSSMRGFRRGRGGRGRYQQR
The experiment in a line: EMSA; 6 mM Mg2+, heparin; 12.5 nM RNA; EMSA: 10 mM HEPES pH 7.3, 20 mM KCl, 6 mM MgCl2, 1 mM DTT, 0.05% NP-40, 1 ug/ul heparin, 40 U RNaseOUT, room temperature 20 min, 6% native PAGE 0.5x TBE; pull-down at room temperature on His-tag Dynabeads, 1x pull-down buffer (composition not stated). The following applies: protein: recombinant; tags: His tag (nickel column); label: 5' digoxigenin. Background: In EMSA bound probe runs differently from free probe, usually more slowly.

Series [2] addresses T2, rLbRBP42 (Leishmania braziliensis, UniProt A4HIP3 1-338).
T2 sequence: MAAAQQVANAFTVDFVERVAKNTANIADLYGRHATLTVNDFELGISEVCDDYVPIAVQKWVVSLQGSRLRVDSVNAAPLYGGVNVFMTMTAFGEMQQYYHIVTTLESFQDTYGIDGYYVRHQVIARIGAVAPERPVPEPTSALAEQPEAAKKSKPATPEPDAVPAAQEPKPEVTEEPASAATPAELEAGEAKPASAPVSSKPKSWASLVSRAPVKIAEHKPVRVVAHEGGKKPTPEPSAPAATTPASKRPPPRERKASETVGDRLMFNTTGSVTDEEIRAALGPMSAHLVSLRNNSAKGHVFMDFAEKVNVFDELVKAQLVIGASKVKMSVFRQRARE
The experiment in a line: EMSA; 6 mM Mg2+, heparin; 3 pM protein, 12.5 nM RNA; EMSA: 10 mM HEPES pH 7.3, 20 mM KCl, 6 mM MgCl2, 1 mM DTT, 0.05% NP-40, 1 ug/ul heparin, 40 U RNaseOUT, room temperature 20 min, 6% native PAGE 0.5x TBE; pull-down at room temperature on His-tag Dynabeads, 1x pull-down buffer (composition not stated). The following applies: protein: recombinant; tags: His tag (nickel column); label: 5' digoxigenin.

In series [3] the target is T2, rLbRBP42. The experiment in a line: competition; vs 12.5 nM labeled N2; decrease of complex only at 4-fold cold RNA; EMSA: 10 mM HEPES pH 7.3, 20 mM KCl, 6 mM MgCl2, 1 mM DTT, 0.05% NP-40, 1 ug/ul heparin, 40 U RNaseOUT, room temperature 20 min, 6% native PAGE 0.5x TBE; pull-down at room temperature on His-tag Dynabeads, 1x pull-down buffer (composition not stated). The following applies: protein: recombinant; tags: His tag (nickel column).

For series [4], the target named is T1, rLbSCD6. The experiment in a line: competition; vs 12.5 nM labeled N2; completely competed at 1-fold cold RNA; EMSA: 10 mM HEPES pH 7.3, 20 mM KCl, 6 mM MgCl2, 1 mM DTT, 0.05% NP-40, 1 ug/ul heparin, 40 U RNaseOUT, room temperature 20 min, 6% native PAGE 0.5x TBE; pull-down at room temperature on His-tag Dynabeads, 1x pull-down buffer (composition not stated). The following applies: protein: recombinant; tags: His tag (nickel column).

Series [5] has as its target T1, rLbSCD6. The experiment in a line: competition; vs 12.5 nM labeled N2; up to 8-fold (100 nM) cold RNA; EMSA: 10 mM HEPES pH 7.3, 20 mM KCl, 6 mM MgCl2, 1 mM DTT, 0.05% NP-40, 1 ug/ul heparin, 40 U RNaseOUT, room temperature 20 min, 6% native PAGE 0.5x TBE; pull-down at room temperature on His-tag Dynabeads, 1x pull-down buffer (composition not stated). The following applies: protein: recombinant; tags: His tag (nickel column).

Series [6] has as its target T2, rLbRBP42. Described as above. The following applies: protein: recombinant; tags: His tag (nickel column).

B1: 3' UTR-II.1 motif (ssRNA)
RNA: AUGUCUUUUAUUUUUUUGUGUGUGUUUUAUAUUUUUCUCCUUUCGUACUAA
As for B1, the binding result in the series with rLbSCD6 [1] and with rLbRBP42 [2] was “binds” throughout.

B2: 3' UTR-II.1 motif, cold (ssRNA)
RNA: AUGUCUUUUAUUUUUUUGUGUGUGUUUUAUAUUUUUCUCCUUUCGUACUAA
B2: the binding result with rLbRBP42 [3] and with rLbSCD6 [4] was “binds” each time.

B3: 3' UTR-II.1 antisense (ssRNA)
RNA: UACAGAAAAUAAAAAAACACACACAAAAUAUAAAAAGAGGAAAGCAUGAUU
Turning to B3, the binding result with rLbSCD6 [5] and with rLbRBP42 [6] was “no binding” each time.

The values are drawn from paper PMC5735676, “Leishmania braziliensis SCD6 and RBP42 proteins, two factors with RNA binding capacity”.
